The source of these data is CN116640222A.

The Kd is the concentration at which binding is half-saturated. By koff is commonly meant the first-order rate constant of dissociation. A high value points to a short-lived complex. By kon is commonly meant the rate constant with which the complex forms. Low values mean slower complex formation, high ones faster complex formation.

Positions count from the first letter of the chain named.

Test [1] has as its target DNP-BSA (UniProt P02769). The test is described as follows: BLI, antibody captured on AMC sensor, DNP-BSA in solution. A general note: BLI is a label-free optical method that tracks binding on a fibre tip over time.
The target in test [2] is DNP-BSA (UniProt P02769). The test is described as follows: indirect ELISA, DNP-BSA coated 3 ug/ml, antibody at 7.813 ng/ml. (In general: ELISA stands for enzyme-linked immunosorbent assay.)
Test [3] deals with DNP-BSA (UniProt P02769). The test is described as follows: indirect ELISA, DNP-BSA coated 3 ug/ml, antibody at 31.25 ng/ml.
The target of test [4] is DNP-BSA (UniProt P02769). Nature of the test: indirect ELISA, DNP-BSA coated 3 ug/ml, antibody at 62.5 ng/ml.
Test [5] deals with DNP-BSA (UniProt P02769). Nature of the test: indirect ELISA, DNP-BSA coated 3 ug/ml, antibody at 15.625 ng/ml.
The target in test [6] is DNP-BSA (UniProt P02769). Nature of the test: indirect ELISA, DNP-BSA coated 3 ug/ml, antibody at 125 ng/ml.
In test [7] the target is DNP-BSA (UniProt P02769). Nature of the test: indirect ELISA on DNP-BSA, antibody stored 21 days at 4 C, at 125 ng/ml.
Test [8] has as its target DNP-BSA (UniProt P02769). Nature of the test: indirect ELISA on DNP-BSA, antibody stored 21 days at -80 C, at 15.625 ng/ml.
Test [9] concerns the target DNP-BSA (UniProt P02769). The test is described as follows: indirect ELISA on DNP-BSA, antibody stored 21 days at 37 C, at 15.625 ng/ml.
For test [10], the target named is DNP-BSA (UniProt P02769). Nature of the test: indirect ELISA on DNP-BSA, antibody stored 21 days at 37 C, at 125 ng/ml.
Test [11] concerns the target DNP-BSA (UniProt P02769). The test is described as follows: indirect ELISA on DNP-BSA, antibody stored 21 days at -80 C, at 125 ng/ml.
For test [12], the target named is DNP-BSA (UniProt P02769). Nature of the test: indirect ELISA on DNP-BSA, antibody stored 21 days at 4 C, at 15.625 ng/ml.

UniProt P02769, sequence (P02769 25-607 limits assumed, form in doubt): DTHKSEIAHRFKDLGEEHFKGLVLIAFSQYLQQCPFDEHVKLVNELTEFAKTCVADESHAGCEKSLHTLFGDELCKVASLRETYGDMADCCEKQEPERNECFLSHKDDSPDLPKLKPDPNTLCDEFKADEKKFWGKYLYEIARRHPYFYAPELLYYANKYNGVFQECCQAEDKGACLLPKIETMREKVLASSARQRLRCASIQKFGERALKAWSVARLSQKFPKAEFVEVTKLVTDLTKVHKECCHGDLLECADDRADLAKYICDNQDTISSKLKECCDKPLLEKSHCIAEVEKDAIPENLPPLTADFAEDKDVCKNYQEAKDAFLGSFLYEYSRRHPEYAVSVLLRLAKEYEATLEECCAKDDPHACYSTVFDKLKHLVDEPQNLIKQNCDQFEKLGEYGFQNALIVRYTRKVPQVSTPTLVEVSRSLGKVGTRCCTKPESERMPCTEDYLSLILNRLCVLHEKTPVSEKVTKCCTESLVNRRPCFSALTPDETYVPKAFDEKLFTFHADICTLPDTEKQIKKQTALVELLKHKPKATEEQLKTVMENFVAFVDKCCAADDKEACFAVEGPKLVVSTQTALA

In the test with DNP-BSA [1], 对照 (antibody) gave a Kd of 2.57 nM. The molecule further had a koff in the test with DNP-BSA [1] of 0.00055 s⁻¹. In the test with DNP-BSA [1], this molecule showed a kon of 214000 M⁻¹ s⁻¹. For the same molecule, the OD (450 nm, ref 630 nm) is 0.229 OD with DNP-BSA [2]; 0.949 OD with DNP-BSA [3]; 1.53 OD with DNP-BSA [4]; 0.375 OD with DNP-BSA [5]; 2.37 OD with DNP-BSA [6].

B1: Anti-DNP-6G1mut2 (antibody, mouse IgG1, V domains shown)
VH: EVQLQESGPSLVKPSQTLSLTCSVTGDSIITGYWNWIRKFPGNKLEFMGYISYSGRTYYNPSLKSRVSITRDTSKNQYYLQLSSVTTEDAATYYCTRWTTAYFGIDSWGQGISVTVSS
VL: QAVVTQESALTTSPGGTVILTCRSSTGAVTTSNNANWVQEKPDHLFTGLIGGTSNRAPGVPVRFSGSLIGDKAALTITGAQTEDDAMYFCALWYSTHYVFGGGTKVTVLG
For the molecule B1, the Kd with DNP-BSA [1] is 0.287 nM. The molecule further registered a koff with DNP-BSA [1] of 0.00039 s⁻¹. In the test with DNP-BSA [1], this molecule had a kon of 1.36e+06 M⁻¹ s⁻¹. The OD (450 nm, ref 630 nm) with DNP-BSA [2] is 0.516 OD; with DNP-BSA [3], 1.61 OD; with DNP-BSA [4], 2.17 OD; with DNP-BSA [5], 0.987 OD; in the test with DNP-BSA [6] it was 2.28 OD.

B2: Anti-DNP-6G1mut1 (antibody, mouse IgG1, V domains shown)
VH: B1 VH
VL: B1 VL with L92I
With B2, the OD (450 nm, ref 630 nm) in the test with DNP-BSA [7] worked out at 2.21 OD; in the test with DNP-BSA [2] it was 0.504 OD; in the test with DNP-BSA [8], 0.977 OD; with DNP-BSA [3], 1.69 OD; in the test with DNP-BSA [4] it was 1.95 OD; with DNP-BSA [9], 0.985 OD. Moreover, the OD (450 nm, ref 630 nm) with DNP-BSA [5] was found to be 0.96 OD; with DNP-BSA [6] it was 2.25 OD; with DNP-BSA [10] it was 2.26 OD; with DNP-BSA [11], 2.24 OD; in the test with DNP-BSA [12], 0.991 OD. Also, in the test with DNP-BSA [1], the Kd is 0.168 nM. The molecule further gave a koff with DNP-BSA [1] of 0.00042 s⁻¹. This molecule displayed a kon with DNP-BSA [1] of 2.5e+06 M⁻¹ s⁻¹.
